# From patent US10570431B2, “Compositions comprising a polypeptide having cellulolytic enhancing activity and a heterocyclic compound and uses thereof” (priority 2013, dated 2020)
# Read-outs that look alike come from different tables or passages of the source.
# B1: T. aurantiacus GH61A polypeptide: GH61A polypeptide having cellulolytic enhancing activity (SEQ ID NO: 14), recombinantly prepared using Aspergillus oryzae JaL250 as a host (protein, listed as Thermoascus aurantiacus)
# chain: MSFSKIIATAGVLASASLVAGHGFVQNIVIDGKYYGGYLVNQYPYMSNPPEVIAWSTTATDLGFVDGTGYQTPDIICHRGAKPGALTAPVSPGGTVELQWTPWPDSHHGPVINYLAPCNGDCSTVDKTQLEFFKIAESGLINDDNPPGIWASDNLIAANNSWTVTIPTTIAPGNYVLRHEIIALHSAQNQDGAQNYPQCINLQVTGGGSDNPAGTLGTALYHDTDPGILINIYQKLSSYIIPGPPLYTG
# How the values were obtained:
# Format in all cases: biochemical
# [1] = test system: Thielavia terrestris GH61E polypeptide; test: Effect of ascorbic acid on T. terrestris GH61E polypeptide during hydrolysis of AVICEL; details: ascorbic acid 5 mM, T. terrestris GH61E 0.4 or 2 mg per gram cellulose, 1, 3 and 7 days
# [2] = test system: Talaromyces stipitatus GH61A polypeptide; details: AVICEL; ascorbic acid 5 mM; T. stipitatus GH61A 0.4 or 2 mg per gram cellulose; 1, 3 and 7 days
# [3] = test system: Trichoderma reesei cellulase composition
# [4] = test system: Penicillium pinophilum GH61A polypeptide; details: AVICEL; ascorbic acid 5 mM; P. pinophilum GH61A 0.4 or 2 mg per gram cellulose; 1, 3 and 7 days
# [5] = target: Trichoderma reesei GH61B polypeptide (Trichoderma reesei, UniProt Q7Z9M7); test: Effect of ascorbic acid on T. reesei GH61B polypeptide during hydrolysis of AVICEL; details: ascorbic acid 5 mM
# [6] = test system: Trichoderma reesei cellulase composition; details: for Percent conversion of milled unwashed PCS: GH61 present (0.2 mg/g cellulose); for Percent conversion of milled unwashed PCS / Enhancement of hydrolysis of milled unwashed PCS by the presence of GH61 polypeptide: no heterocyclic compound
# [7] = target: Aspergillus fumigatus GH61B polypeptide (Aspergillus fumigatus, UniProt Q4WP32); test: Effect of ascorbic acid on A. fumigatus GH61B polypeptide during hydrolysis of AVICEL; details: ascorbic acid 5 mM, A. fumigatus GH61B 0.4 or 2 mg per gram cellulose, 1, 3 and 7 days
# [8] = test system: Trichoderma reesei cellulase composition; test: Hydrolysis of AVICEL (microcrystalline cellulose) by the T. reesei cellulase composition, with/without GH61 polypeptide or heterocyclic compound; details: GH61 polypeptide present (0.4 mg per g cellulose), no heterocyclic compound
# Aspergillus fumigatus GH61B polypeptide, sequence (Q4WP32 22-250): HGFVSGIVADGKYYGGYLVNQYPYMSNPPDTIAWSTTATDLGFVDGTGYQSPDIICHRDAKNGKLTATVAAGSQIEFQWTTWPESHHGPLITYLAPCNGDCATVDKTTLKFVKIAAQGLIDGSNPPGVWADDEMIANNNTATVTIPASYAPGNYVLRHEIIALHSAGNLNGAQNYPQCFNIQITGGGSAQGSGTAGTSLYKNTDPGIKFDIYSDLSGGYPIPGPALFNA
# Trichoderma reesei GH61B polypeptide, sequence (Q7Z9M7 20-249): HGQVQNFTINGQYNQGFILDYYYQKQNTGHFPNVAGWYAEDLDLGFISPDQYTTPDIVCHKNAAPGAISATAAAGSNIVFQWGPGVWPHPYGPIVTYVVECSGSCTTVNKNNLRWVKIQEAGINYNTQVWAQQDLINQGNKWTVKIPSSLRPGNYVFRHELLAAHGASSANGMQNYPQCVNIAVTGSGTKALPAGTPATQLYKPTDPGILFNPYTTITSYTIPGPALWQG
molecule,measurement,setting,value
"O=C1OC(C(O)CO)C(O)=C1O (stereo not drawn) [ascorbic acid, (1,2-dihydroxyethyl)-3,4-dihydroxyfuran-2(5H)-one]",GH61 effect in the presence of heterocyclic compound,[1],greater than 1
same,heterocyclic compound effect(+GH61),[1],increased
same,GH61 effect in the presence of heterocyclic compound,[2],greater than 1
same,heterocyclic compound effect(+GH61),[2],increased
same,heterocyclic compound effect(no GH61),"[3]; milled washed PCS, compound 5 mM, no GH61, 1, 3 and 7 days",slightly decreased
same,GH61 effect in the presence of heterocyclic compound,[4],greater than 1
same,heterocyclic compound effect(+GH61),[4],increased
same,heterocyclic compound effect(+GH61),[5]; T. reesei GH61B 2 mg per g cellulose,increased
same,GH61 effect in the presence of heterocyclic compound,[5]; T. reesei GH61B at high level (2 mg per g cellulose),greater than 1
same,heterocyclic compound effect(no GH61),"[6]; milled unwashed PCS, compound 5 mM, cellulase 2 mg per g cellulose, no GH61, 1, 3 and 7 days",greater than 1
same,GH61 effect in the presence of heterocyclic compound,[7],greater than 1
same,heterocyclic compound effect(+GH61),[7],increased
B1,Enhancement of hydrolysis of milled washed PCS by the presence of GH61 polypeptide,"[3]; 1 day, no heterocyclic compound",14%
same,Enhancement of hydrolysis of milled washed PCS by the presence of GH61 polypeptide,"[3]; 3 days, no heterocyclic compound",31%
same,Enhancement of hydrolysis of milled washed PCS by the presence of GH61 polypeptide,"[3]; 7 days, no heterocyclic compound",31%
same,Percent conversion of milled washed PCS,"[3]; day 1, GH61 present (0.4 mg per g cellulose), cellulase 4 mg per g cellulose, no heterocyclic compound, 37±1% in the absence of GH61",42±1%
same,Percent conversion of milled washed PCS,"[3]; day 1, cellulase 2 mg per g cellulose, GH61 at 10% (w/w) of the cellulase composition, 24±0.7% in the absence of GH61",27±0.8%
same,Percent conversion of milled washed PCS,"[3]; day 1, cellulase 2 mg per g cellulose, GH61 at 25% (w/w) of the cellulase composition, 24±0.7% in the absence of GH61",27±0.8%
same,Percent conversion of milled washed PCS,"[3]; day 1, cellulase 2 mg per g cellulose, GH61 at 50% (w/w) of the cellulase composition, 24±0.7% in the absence of GH61",27±0.8%
same,Percent conversion of milled washed PCS,"[3]; day 3, GH61 present (0.4 mg per g cellulose), cellulase 4 mg per g cellulose, no heterocyclic compound, 55±1% in the absence of GH61",72±1%
same,Percent conversion of milled washed PCS,"[3]; day 3, cellulase 2 mg per g cellulose, GH61 at 10% (w/w) of the cellulase composition, 41±2% in the absence of GH61",55±3%
same,Percent conversion of milled washed PCS,"[3]; day 3, cellulase 2 mg per g cellulose, GH61 at 25% (w/w) of the cellulase composition, 41±2% in the absence of GH61",57±0.5%
same,Percent conversion of milled washed PCS,"[3]; day 3, cellulase 2 mg per g cellulose, GH61 at 50% (w/w) of the cellulase composition, 41±2% in the absence of GH61",59±2%
same,Percent conversion of milled washed PCS,"[3]; day 7, GH61 present (0.4 mg per g cellulose), cellulase 4 mg per g cellulose, no heterocyclic compound, 67±0.2% in the absence of GH61",88±2%
same,Percent conversion of milled unwashed PCS,"[6]; 1 day, cellulase 2 mg per g cellulose, 18.7±0.1% in the absence of GH61",22.2±0.1%
same,Enhancement of hydrolysis of milled unwashed PCS by the presence of GH61 polypeptide,[6]; 1 day,19%
same,Percent conversion of milled unwashed PCS,"[6]; 3 days, cellulase 2 mg per g cellulose, 28.2±0.3% in the absence of GH61",34.3±0.3%
same,Enhancement of hydrolysis of milled unwashed PCS by the presence of GH61 polypeptide,[6]; 3 days,21%
same,Percent conversion of milled unwashed PCS,"[6]; 7 days, cellulase 2 mg per g cellulose, 36.9±0.3% in the absence of GH61",44.0±0.2%
same,Enhancement of hydrolysis of milled unwashed PCS by the presence of GH61 polypeptide,[6]; 7 days,19%
same,Percent conversion of AVICEL,"[8]; 1 day, 16±1% in the absence of GH61",16±1%
same,Percent conversion of AVICEL,"[8]; 3 days, 31±4% in the absence of GH61",30±4%
same,Percent conversion of AVICEL,"[8]; 7 days, 45±3% in the absence of GH61",45±4%
